± gives the uncertainty stated by the source.
Experiment: self-splicing fitness, log relative to wild type (ln ratio); higher = more splicing; Tetrahymena group I intron in knt gene, E. coli kanamycin selection, DiMSum; sequences stand for … in CUCUCU…GGAGGGAAAAGUUAUCAGGCAUGCACCUGGUAGCUAGUCUUUAAACCAAUAGAUUGCAUCGGUUUAAAAGGCAAGACCGUCAAAUUGCGGGAAAGGGGUCAACAGCCGUUCAGUACCAAGUCUCAGGGGAAACUUUGAGAUGGCCUUGCAAAGGGUAUGGUAAUAAGCUGACGGACAUGGUCCUAACCACGCAGCCAAGUCCUAAGUCAACAGAUCUUCUGUUGAUAUGGAUGCAGUUCACAGACUAAAUGUCGGUCGGGGAAGAUGUAUUCUUCUCAUAAGAUAUAGUCGGACCUCUCCUUAAUGGGAGCUAGCGGAUGAAGUGAUGCAACACUGGAGCCGCUGGGAACUAAUUUGUAUGCGAAAGUAUAUUGAUUAGUUUUGGAGUACUCGUGGUCG
Procedure, shortened: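 Six replicate transformations of E. coli BL21(DE3) with a pET-22b(+) library were grown overnight at 37°C or 30°C. The library randomised all eight P1ex-region intron nucleotides, the intron lying in the knt kanamycin-resistance gene, and plates were LB agar with or without 25 μg/mL kanamycin plus 100 μg/mL carbenicillin, 50 μM IPTG and 0.2% rhamnose. Pooled colonies were amplicon-sequenced on an Illumina HiSeq 2500, and fitness is the DiMSum error-weighted combination of wild-type-normalised replicate fold changes, kanamycin versus none.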

Row | Sequence | self-splicing fitness (ln) (37 °C) | self-splicing fitness (ln) (30 °C)
1 | UUAAAGCAAUAUUACGCAGC | -2.68 ± 0.47 | 
2 | UUAAAGCAAUAUUACGCGAG | 0.3 ± 0.085 | -0.116 ± 0.071
3 | UUAAAGCAAUAUUACGCGCC | -0.00103 ± 0.24 | -0.43 ± 0.15
4 | UUAAAGCAAUAUUACGCGGC | -1.03 ± 0.2 | -2.74 ± 0.29
5 | UUAAAGCAAUAUUACGCGUG | -0.26 ± 0.068 | -0.256 ± 0.056
6 | UUAAAGCAAUAUUACGGACG | 0.835 ± 0.14 | 0.179 ± 0.079
7 | UUAAAGCAAUAUUACGGCGG | 0.0127 ± 0.13 | 0.463 ± 0.11
8 | UUAAAGCAAUAUUACGGGAG | -0.293 ± 0.12 | -1.34 ± 0.08
9 | UUAAAGCAAUAUUACGUAGU | -1.9 ± 0.18 | -3.87 ± 0.21
10 | UUAAAGCAAUAUUACGUGGA | -0.864 ± 0.073 | -2.45 ± 0.072
11 | UUAAAGCAAUAUUACGUUAU | -1.23 ± 0.11 | -2.14 ± 0.092
12 | UUAAAGCAAUAUUACGUUCC | -0.947 ± 0.21 | -2.36 ± 0.22
13 | UUAAAGCAAUAUUACGUUGA | -0.0751 ± 0.094 | -0.721 ± 0.066
14 | UUACAGCAAUAUUACGAAAU | -2.59 ± 0.33 | -3.69 ± 0.34
15 | UUACAGCAAUAUUACGAACA | -1.07 ± 0.12 | -0.742 ± 0.11
16 | UUACAGCAAUAUUACGACAG | -0.222 ± 0.083 | -1.02 ± 0.068
17 | UUACAGCAAUAUUACGAGAC | -2.18 ± 0.34 | -3.02 ± 0.27
18 | UUACAGCAAUAUUACGAGGG | -1.62 ± 0.21 | -3.1 ± 0.25
19 | UUACAGCAAUAUUACGAGGU | -2.72 ± 0.23 | -3.08 ± 0.22
20 | UUACAGCAAUAUUACGAUAG | 0.204 ± 0.07 | -0.427 ± 0.056
21 | UUACAGCAAUAUUACGAUCC | -2.28 ± 0.16 | -3.16 ± 0.13
22 | UUACAGCAAUAUUACGCGCG | 0.0717 ± 0.1 | -0.121 ± 0.099
23 | UUACAGCAAUAUUACGCUAG | -0.391 ± 0.11 | -0.779 ± 0.11
24 | UUACAGCAAUAUUACGGGGG | -1.77 ± 0.15 | -2.2 ± 0.14

Row | Sequence | self-splicing fitness (ln) (37 °C) | self-splicing fitness (ln) (30 °C)
25 | UUACAGCAAUAUUACGGUCA | -0.209 ± 0.088 | -0.595 ± 0.075
26 | UUACAGCAAUAUUACGGUGA | -0.122 ± 0.14 | -1.03 ± 0.099
27 | UUACAGCAAUAUUACGUCAA | -0.187 ± 0.081 | -1.14 ± 0.082
28 | UUACAGCAAUAUUACGUCAG | -0.337 ± 0.09 | -0.769 ± 0.067
29 | UUACAGCAAUAUUACGUCCG | -0.482 ± 0.14 | -1.53 ± 0.089
30 | UUACAGCAAUAUUACGUCUC | -2.3 ± 0.22 | -2.98 ± 0.28
31 | UUACAGCAAUAUUACGUUCG | -0.234 ± 0.091 | -0.549 ± 0.061
32 | UUACAGCAAUAUUACGUUUU | -0.802 ± 0.092 | -3.4 ± 0.11
33 | UUAGAGCAAUAUUACGAGUA | -2.1 ± 0.19 | -3.31 ± 0.29
34 | UUAGAGCAAUAUUACGAUCC |  | -2.97 ± 0.41
35 | UUAGAGCAAUAUUACGCACA | -0.314 ± 0.11 | -0.745 ± 0.08
36 | UUAGAGCAAUAUUACGCACU | -1.78 ± 0.44 | -1.24 ± 0.23
37 | UUAGAGCAAUAUUACGCCAA | -0.0692 ± 0.2 | -0.503 ± 0.16
38 | UUAGAGCAAUAUUACGCCGG | 0.69 ± 0.36 | -0.922 ± 0.19
39 | UUAGAGCAAUAUUACGCGUG | 0.00533 ± 0.11 | -0.924 ± 0.086
40 | UUAGAGCAAUAUUACGCGUU | -1.62 ± 0.17 | -2.85 ± 0.17
41 | UUAGAGCAAUAUUACGCUUA | -0.447 ± 0.12 | -0.675 ± 0.099
42 | UUAGAGCAAUAUUACGGACG | -0.509 ± 0.29 | -1.73 ± 0.15
43 | UUAGAGCAAUAUUACGGAGA | -0.654 ± 0.23 | -0.579 ± 0.13
44 | UUAGAGCAAUAUUACGGAGU | -2.9 ± 0.32 | -4.12 ± 0.39
45 | UUAGAGCAAUAUUACGGCGA | -0.0898 ± 0.074 | 0.109 ± 0.063
46 | UUAGAGCAAUAUUACGGCGC | -0.914 ± 0.25 | -2.79 ± 0.24
47 | UUAGAGCAAUAUUACGGGCG | -1.13 ± 0.17 | -2.23 ± 0.14
48 | UUAGAGCAAUAUUACGGGGG | -1.79 ± 0.36 | -3.04 ± 0.31

Row | Sequence | self-splicing fitness (ln) (37 °C) | self-splicing fitness (ln) (30 °C)
49 | UUAGAGCAAUAUUACGGGGU | -2.06 ± 0.46 | -2.83 ± 0.3
50 | UUAGAGCAAUAUUACGGGUG | -0.89 ± 0.2 | -3.1 ± 0.33
51 | UUAGAGCAAUAUUACGGUAU | -1.36 ± 0.19 | -3.84 ± 0.28
52 | UUAGAGCAAUAUUACGGUCG | -0.691 ± 0.31 | -1.64 ± 0.19
53 | UUAGAGCAAUAUUACGUAGU | -3.47 ± 0.42 | -1.3 ± 0.21
54 | UUAGAGCAAUAUUACGUCCA | -1.71 ± 0.37 | -1.31 ± 0.22
55 | UUAGAGCAAUAUUACGUCUC | -2.82 ± 0.34 | -3.56 ± 0.25
56 | UUAGAGCAAUAUUACGUCUU | -0.85 ± 0.13 | -1.62 ± 0.097
57 | UUAGAGCAAUAUUACGUUCG | -0.767 ± 0.15 | -1.22 ± 0.1
58 | UUAUAGCAAUAUUACGAACA | -0.83 ± 0.17 | -1.51 ± 0.19
59 | UUAUAGCAAUAUUACGAAUG | -0.727 ± 0.17 | -2.43 ± 0.16
60 | UUAUAGCAAUAUUACGACCG | 0.446 ± 0.22 | -0.514 ± 0.16
61 | UUAUAGCAAUAUUACGAUAA | -0.0656 ± 0.12 | -0.51 ± 0.11
62 | UUAUAGCAAUAUUACGCAAG | -1.89 ± 0.19 | -1.35 ± 0.16
63 | UUAUAGCAAUAUUACGCACA | 0.287 ± 0.084 | -0.698 ± 0.085
64 | UUAUAGCAAUAUUACGCCAA | -0.44 ± 0.25 | 
65 | UUAUAGCAAUAUUACGCCUU | -0.144 ± 0.2 | -2.91 ± 0.26
66 | UUAUAGCAAUAUUACGCGGC | -2.4 ± 0.37 | -2.42 ± 0.49
67 | UUAUAGCAAUAUUACGCUAA | -2.34 ± 0.19 | -2.61 ± 0.24
68 | UUAUAGCAAUAUUACGCUCU | -0.705 ± 0.46 | -2.68 ± 0.37
69 | UUAUAGCAAUAUUACGGACC | -1.41 ± 0.21 | -3.38 ± 0.47
70 | UUAUAGCAAUAUUACGGCGU | -1.7 ± 0.23 | -2.88 ± 0.34
71 | UUAUAGCAAUAUUACGGGAG | -1.94 ± 0.31 | -2.25 ± 0.25
72 | UUAUAGCAAUAUUACGGGUG | -0.829 ± 0.12 | -1.68 ± 0.1

Row | Sequence | self-splicing fitness (ln) (37 °C) | self-splicing fitness (ln) (30 °C)
73 | UUAUAGCAAUAUUACGUACU | -1 ± 0.23 | -1.49 ± 0.18
74 | UUAUAGCAAUAUUACGUAGA | -0.707 ± 0.17 | -1.34 ± 0.17
75 | UUAUAGCAAUAUUACGUCAG | -0.818 ± 0.12 | -1.61 ± 0.13
76 | UUAUAGCAAUAUUACGUUGA | -1.58 ± 0.27 | -2.54 ± 0.42
77 | UUCAAGCAAUAUUACGAAAG | -2.39 ± 0.28 | -3.65 ± 0.24
78 | UUCAAGCAAUAUUACGAAUG | -2.87 ± 0.27 | -4.12 ± 0.24
79 | UUCAAGCAAUAUUACGACCA | -0.352 ± 0.21 | -1.48 ± 0.31
80 | UUCAAGCAAUAUUACGACGA | 0.213 ± 0.084 | -0.243 ± 0.084
81 | UUCAAGCAAUAUUACGAGAU | -2.17 ± 0.18 | -3.07 ± 0.19
82 | UUCAAGCAAUAUUACGAGGU | -1.89 ± 0.23 | -3.41 ± 0.29
83 | UUCAAGCAAUAUUACGAUGA | 0.0199 ± 0.092 | -0.963 ± 0.097
84 | UUCAAGCAAUAUUACGAUUC | -2.22 ± 0.19 | -2.57 ± 0.15
85 | UUCAAGCAAUAUUACGCAAU | -1.99 ± 0.21 | -2.21 ± 0.19
86 | UUCAAGCAAUAUUACGCCUU | -0.968 ± 0.2 | -1.8 ± 0.13
87 | UUCAAGCAAUAUUACGCGCA | 0.264 ± 0.17 | -0.732 ± 0.13
88 | UUCAAGCAAUAUUACGCGCC | -1.38 ± 0.25 | -0.923 ± 0.17
89 | UUCAAGCAAUAUUACGCGUU | -0.189 ± 0.09 | -2.62 ± 0.12
90 | UUCAAGCAAUAUUACGGCCC | -0.618 ± 0.18 | -1.49 ± 0.17
91 | UUCAAGCAAUAUUACGGCGG | -0.416 ± 0.1 | -0.903 ± 0.076
92 | UUCAAGCAAUAUUACGGGAU | -1.4 ± 0.14 | -3.11 ± 0.13
93 | UUCAAGCAAUAUUACGGGCU | -1.81 ± 0.16 | -3.7 ± 0.21
94 | UUCAAGCAAUAUUACGGUAC | -2.71 ± 0.36 | -2.8 ± 0.2
95 | UUCAAGCAAUAUUACGGUCG | -0.62 ± 0.13 | -0.917 ± 0.1
96 | UUCAAGCAAUAUUACGGUCU | -1.97 ± 0.16 | -2.89 ± 0.16

Reference: the supplement of paper PMC7877785
